Test results from the supplement of paper PMC7877785.
± gives the uncertainty stated by the source.

Experiment: self-splicing fitness, log relative to wild type (ln ratio); higher = more splicing; Tetrahymena group I intron in knt gene, E. coli kanamycin selection, DiMSum; sequences stand for … in CUCUCU…GGAGGGAAAAGUUAUCAGGCAUGCACCUGGUAGCUAGUCUUUAAACCAAUAGAUUGCAUCGGUUUAAAAGGCAAGACCGUCAAAUUGCGGGAAAGGGGUCAACAGCCGUUCAGUACCAAGUCUCAGGGGAAACUUUGAGAUGGCCUUGCAAAGGGUAUGGUAAUAAGCUGACGGACAUGGUCCUAACCACGCAGCCAAGUCCUAAGUCAACAGAUCUUCUGUUGAUAUGGAUGCAGUUCACAGACUAAAUGUCGGUCGGGGAAGAUGUAUUCUUCUCAUAAGAUAUAGUCGGACCUCUCCUUAAUGGGAGCUAGCGGAUGAAGUGAUGCAACACUGGAGCCGCUGGGAACUAAUUUGUAUGCGAAAGUAUAUUGAUUAGUUUUGGAGUACUCGUGGUCG
Summary of the method: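 A randomised library covering all eight P1ex-region intron nucleotides was built with the intron in the knt kanamycin-resistance gene on pET-22b(+) and held in E. coli BL21(DE3). Cells were grown overnight at 37°C or 30°C on LB agar, with or without 25 μg/mL kanamycin, plus 100 μg/mL carbenicillin, 50 μM IPTG and 0.2% rhamnose, and pooled colonies were amplicon-sequenced on an Illumina HiSeq 2500. DiMSum fitness is the error-weighted combination of wild-type-normalised replicate fold changes, kanamycin versus none.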

Sequence | self-splicing fitness (ln) (30 °C) | self-splicing fitness (ln) (37 °C)
GGCGAGCAAUAUUACGCCGG | -3.4 ± 0.35 | -0.739 ± 0.33
UCUGAGCAAUAUUACGGUAG | -3.93 ± 0.33 | -1.67 ± 0.18
GACAAGCAAUAUUACGUAGU | -3.92 ± 0.18 | -1.65 ± 0.11
CGCCAGCAAUAUUACGAGCC | -1.63 ± 0.14 | -0.446 ± 0.18
CCUAAGCAAUAUUACGAUCU | -3.39 ± 0.35 | -3.07 ± 0.28
CCCCAGCAAUAUUACGUGCG | -3.1 ± 0.099 | -2.58 ± 0.14
GAUAAGCAAUAUUACGAGUC | -3.11 ± 0.27 | -1.32 ± 0.17
UUUGAGCAAUAUUACGAGCU | -2.69 ± 0.39 | 
CUACAGCAAUAUUACGCGUC | -3.92 ± 0.26 | -2.77 ± 0.24
GGUUAGCAAUAUUACGCUCA | -1.34 ± 0.2 | -0.632 ± 0.19
AAAUAGCAAUAUUACGAAAA | -2.66 ± 0.35 | -1.47 ± 0.22
AUUGAGCAAUAUUACGGCUA | -1.73 ± 0.37 | -0.81 ± 0.21
ACAUAGCAAUAUUACGAACU | -0.612 ± 0.1 | 0.274 ± 0.12
GAGUAGCAAUAUUACGAGCU | -1.64 ± 0.073 | -0.0858 ± 0.11
UGCGAGCAAUAUUACGGGAC | -3.69 ± 0.39 | -1.88 ± 0.23
ACAGAGCAAUAUUACGUUGC | -2.78 ± 0.18 | 
GGUGAGCAAUAUUACGCUAA | -3.69 ± 0.35 | -1.78 ± 0.21
GAGUAGCAAUAUUACGUAUC | -3.05 ± 0.14 | -0.698 ± 0.11
AAUCAGCAAUAUUACGGUAC | -0.714 ± 0.082 | -0.852 ± 0.1
GGGAAGCAAUAUUACGUGGC | -2.16 ± 0.36 | -2.73 ± 0.31
CUCCAGCAAUAUUACGUUUA | -3.31 ± 0.27 | -2.27 ± 0.18
CCUGAGCAAUAUUACGCGCU | -4.19 ± 0.39 | -2.1 ± 0.24
AGGGAGCAAUAUUACGCAUU | -3.7 ± 0.37 | 
AUCCAGCAAUAUUACGGUAU | -2.88 ± 0.13 | -1.19 ± 0.12
GUGUAGCAAUAUUACGAGAC | -3.58 ± 0.42 | -2.4 ± 0.16

Sequence | self-splicing fitness (ln) (30 °C) | self-splicing fitness (ln) (37 °C)
UCAAAGCAAUAUUACGCACA | -0.843 ± 0.079 | -0.191 ± 0.082
AUCUAGCAAUAUUACGCUGC | -2.92 ± 0.24 | -1.66 ± 0.18
CUCGAGCAAUAUUACGUGUC |  | -2.76 ± 0.27
GAUCAGCAAUAUUACGUGCU | -3.41 ± 0.15 | -2.2 ± 0.16
CCAUAGCAAUAUUACGACCA | -2.52 ± 0.46 | 
AGAAAGCAAUAUUACGCUAA | -2.38 ± 0.34 | -1.11 ± 0.4
AUUUAGCAAUAUUACGCUUG | -0.566 ± 0.088 | -0.134 ± 0.12
CCUUAGCAAUAUUACGGGGA | -3.75 ± 0.29 | -2.63 ± 0.23
UCAAAGCAAUAUUACGUCGA | -0.83 ± 0.077 | -0.792 ± 0.081
GGCGAGCAAUAUUACGAUCC | -0.772 ± 0.092 | -0.128 ± 0.12
UCCUAGCAAUAUUACGACUA | -1.23 ± 0.38 | -2.73 ± 0.41
UAGAAGCAAUAUUACGGCAC | -2.42 ± 0.09 | -1.89 ± 0.095
UUUCAGCAAUAUUACGAAAC |  | -2.53 ± 0.3
AAACAGCAAUAUUACGGACU | -0.635 ± 0.097 | -0.406 ± 0.12
AUGCAGCAAUAUUACGCGCC | -0.788 ± 0.15 | -0.038 ± 0.16
GGAGAGCAAUAUUACGGUCA | -1.14 ± 0.2 | -2.11 ± 0.36
CGCUAGCAAUAUUACGCUCA | -2.4 ± 0.18 | -0.522 ± 0.11
UGACAGCAAUAUUACGAGUA | -2.37 ± 0.17 | -0.712 ± 0.11
AGAAAGCAAUAUUACGGUUG | -3.65 ± 0.17 | -1.78 ± 0.16
GCUCAGCAAUAUUACGAAUU | -1.04 ± 0.064 | 0.155 ± 0.087
AUAAAGCAAUAUUACGUGCA | -0.0876 ± 0.067 | 0.348 ± 0.093
AUAGAGCAAUAUUACGCGAA | -1.34 ± 0.093 | -1.1 ± 0.11
GGAUAGCAAUAUUACGCCCA | -1.36 ± 0.49 | -1.39 ± 0.33
GAUAAGCAAUAUUACGACGA | -0.165 ± 0.12 | -0.626 ± 0.11
CAGCAGCAAUAUUACGCCAA | -3.43 ± 0.32 | -1.87 ± 0.17
